# Reference: patent US10485854B2, “Method of reducing biofilms” (Lysando AG, priority 2010, dated 2019)
# Numbering of substitutions follows the chain as printed.
# B1: POLY-gp188: fusion protein SEQ ID NO: 39: endolysin ELgp188 (SEQ ID NO: 2) with peptide SEQ ID NO: 11 (protein)
# chain: MGSKRKKRKKRKNFRTKNGYRDLQALVKELGLYTGQIDGVWGKGTSSSTETLLRGYAEVVGKNTGGIGLPTTSDASGYNVITALQRNLAFLGLYSLTVDGIWGNGTLSGLDKAFEVYKERYRTPTYDIAWSGKVSPAFTAKVKDWCGVHVPNHRAPHWLMACMAFETGQTFSPSIKNAAGSEAYGLIQFMSPAANDLNVPLSVIRSMDQLTQLDLVFKYFEMWMKRGKRYTQLEDFYLTIFHPASVGKKADEVLFLQGSKAYLQNKGFDVDKDGKITLGEISSTLYTTYYKGLLPENRHVISY
# modifications: POLY-gp188
# B2: PKPSP3gp10: fusion protein SEQ ID NO: 53: endolysin PSP3gp10 (SEQ ID NO: 8) with peptide SEQ ID NO: 11 (protein)
# chain: MGSKRKKRKKRKPVINTHQNIAAFLDMLAYSEGTANHPLTKNRGYDVIVTGFDGSPEIFTDYSDHPFAHGRPPKVFNRRGEKSTASGRYQQLYIFWPHYKKQLALPDFSPLSQDKLAIQLIRERGAIDDIRAGRIERAVSRCRNIWASLPGAGYGQREHSLEKLVTVWRTAGGVMA
# modifications: PKPSP3gp10
# B3: pK2KZ144_pET32b_mod3: fusion protein SEQ ID NO: 49: endolysin SEQ ID NO: 1 with 38-residue linker-containing peptide SEQ ID NO: 28 (protein)
# chain: AMGSKRKKRKKRKRGSGSGKRKKRKKRKRGSGSGKRKKRKKRKKVLRKGDRGDEVCQLQTLLNLCGYDVGKPDGIFGNNTFNQVVKFQKDNCLDSDGIVGKNTWAELFSKYSPPIPYKTIPMPTANKSRAAATPVMNAVENATGVRSQLLLTFASIESAFDYEIKAKTSSATGWFQFLTGTWKTMIENYGMKYGVLTDPTGALRKDPRISALMGAELIKENMNILRPVLKREPTDTDLYLAHFFGPGAARRFLTTGQNELAATHFPKEAQANPSIFYNKDGSPKTIQEVYNLMDGKVAAHRK
# modifications: pK2KZ144_pET32b_mod3
# B4: POLY-gp144: fusion protein SEQ ID NO: 35: endolysin phiKZgp144 (SEQ ID NO: 1) with N-terminal peptide KRKKRKKRK (SEQ ID NO: 11) (protein)
# chain: MGSKRKKRKKRKKVLRKGDRGDEVCQLQTLLNLCGYDVGKPDGIFGNNTFNQVVKFQKDNCLDSDGIVGKNTWAELFSKYSPPIPYKTIPMPTANKSRAAATPVMNAVENATGVRSQLLLTFASIESAFDYEIKAKTSSATGWFQFLTGTWKTMIENYGMKYGVLTDPTGALRKDPRISALMGAELIKENMNILRPVLKREPTDTDLYLAHFFGPGAARRFLTTGQNELAATHFPKEAQANPSIFYNKDGSPKTIQEVYNLMDGKVAAHRK
# modifications: POLY-gp144
# B5: K8_pET32b: fusion protein SEQ ID NO: 48: endolysin SEQ ID NO: 1 with peptide KKKKKKKK (SEQ ID NO: 13) (protein)
# chain: B4 chain with M1A, G2M, S3G, K4S, R5K, R8K, R11K
# modifications: K8_pET32b
# B6: (POLY)^2-gp188: fusion protein SEQ ID NO: 40: endolysin SEQ ID NO: 2 with peptide SEQ ID NO: 21 (protein)
# chain: MGSKRKKRKKRKRSKRKKRKKRKNFRTKNGYRDLQALVKELGLYTGQIDGVWGKGTSSSTETLLRGYAEVVGKNTGGIGLPTTSDASGYNVITALQRNLAFLGLYSLTVDGIWGNGTLSGLDKAFEVYKERYRTPTYDIAWSGKVSPAFTAKVKDWCGVHVPNHRAPHWLMACMAFETGQTFSPSIKNAAGSEAYGLIQFMSPAANDLNVPLSVIRSMDQLTQLDLVFKYFEMWMKRGKRYTQLEDFYLTIFHPASVGKKADEVLFLQGSKAYLQNKGFDVDKDGKITLGEISSTLYTTYYKGLLPENRHVISY
# modifications: (POLY)2-gp188
# B7: ELgp188: unmodified modular endolysin of Pseudomonas aeruginosa phage EL, SEQ ID NO: 2 (protein)
# chain: MNFRTKNGYRDLQALVKELGLYTGQIDGVWGKGTSSSTETLLRGYAEVVGKNTGGIGLPTTSDASGYNVITALQRNLAFLGLYSLTVDGIWGNGTLSGLDKAFEVYKERYRTPTYDIAWSGKVSPAFTAKVKDWCGVHVPNHRAPHWLMACMAFETGQTFSPSIKNAAGSEAYGLIQFMSPAANDLNVPLSVIRSMDQLTQLDLVFKYFEMWMKRGKRYTQLEDFYLTIFHPASVGKKADEVLFLQGSKAYLQNKGFDVDKDGKITLGEISSTLYTTYYKGLLPENRHVISY
# modifications: ELgp188
# B8: R9_pET32b: fusion protein SEQ ID NO: 47: endolysin SEQ ID NO: 1 with peptide RRRRRRRRR (SEQ ID NO: 12) (protein)
# chain: AMGSRRRRRRRRRKVLRKGDRGDEVCQLQTLLNLCGYDVGKPDGIFGNNTFNQVVKFQKDNCLDSDGIVGKNTWAELFSKYSPPIPYKTIPMPTANKSRAAATPVMNAVENATGVRSQLLLTFASIESAFDYEIKAKTSSATGWFQFLTGTWKTMIENYGMKYGVLTDPTGALRKDPRISALMGAELIKENMNILRPVLKREPTDTDLYLAHFFGPGAARRFLTTGQNELAATHFPKEAQANPSIFYNKDGSPKTIQEVYNLMDGKVAAHRK
# modifications: R9_pET32b
# B9: PK-Lysostaphin: fusion protein SEQ ID NO: 142: bacteriocin Lysostaphin (SEQ ID NO: 87) with peptide SEQ ID NO: 11 (protein)
# chain: AMGKRKKRKKRKGSAHEHSAQWLNNYKKGYGYGPYPLGINGGMHYGVDFFMNIGTPVKAISSGKIVEAGWSNYGGGNQIGLIENDGVHRQWYMHLSKYNVKVGDYVKAGQIIGWSGSTGYSTAPHLHFQRMVNSFSNSTAQDPMPFLKSAGYGKAGGTVTPTPNTGWKTNKYGTLYKSESASFTPNTDIITRTTGPFRSMPQSGVLKAGQTIHYDEVMKQDGHVWVGYTGNSGQRIYLPVRTWNKSTNTLGVLWGTIKLVPRGS
# modifications: PK-Lysostaphin
# B10: PSP3gp10: unmodified globular endolysin of Salmonella typhimurium phage PSP3, SEQ ID NO: 8 (protein)
# chain: MPVINTHQNIAAFLDMLAYSEGTANHPLTKNRGYDVIVTGFDGSPEIFTDYSDHPFAHGRPPKVFNRRGEKSTASGRYQQLYIFWPHYKKQLALPDFSPLSQDKLAIQLIRERGAIDDIRAGRIERAVSRCRNIWASLPGAGYGQREHSLEKLVTVWRTAGGVMA
# modifications: PSP3gp10
# B11: (POLY)^2-gp144: fusion protein SEQ ID NO: 36: endolysin SEQ ID NO: 1 with peptide SEQ ID NO: 21 (protein)
# chain: MGSKRKKRKKRKRSKRKKRKKRKKVLRKGDRGDEVCQLQTLLNLCGYDVGKPDGIFGNNTFNQVVKFQKDNCLDSDGIVGKNTWAELFSKYSPPIPYKTIPMPTANKSRAAATPVMNAVENATGVRSQLLLTFASIESAFDYEIKAKTSSATGWFQFLTGTWKTMIENYGMKYGVLTDPTGALRKDPRISALMGAELIKENMNILRPVLKREPTDTDLYLAHFFGPGAARRFLTTGQNELAATHFPKEAQANPSIFYNKDGSPKTIQEVYNLMDGKVAAHRK
# modifications: (POLY)2-gp144
# B12: KRK_6_pET32b: fusion protein SEQ ID NO: 44: endolysin SEQ ID NO: 1 with peptide KRKKRK (SEQ ID NO: 10) (protein)
# chain: AMGSKRKKRKKVLRKGDRGDEVCQLQTLLNLCGYDVGKPDGIFGNNTFNQVVKFQKDNCLDSDGIVGKNTWAELFSKYSPPIPYKTIPMPTANKSRAAATPVMNAVENATGVRSQLLLTFASIESAFDYEIKAKTSSATGWFQFLTGTWKTMIENYGMKYGVLTDPTGALRKDPRISALMGAELIKENMNILRPVLKREPTDTDLYLAHFFGPGAARRFLTTGQNELAATHFPKEAQANPSIFYNKDGSPKTIQEVYNLMDGKVAAHRK
# modifications: KRK_6_pET32b
# Experiments:
# [1] = system: P. aeruginosa PAO1p cells; test: Antibacterial activity, 1 hour incubation with 100 μg/ml protein, residual colony count; conditions: for antibacterial effect in words (reduction of cell numbers compared to the negative control): 100 μg/ml protein, room temperature; for antibacterial activity as the relative inactivation (%): exponentially growing cells, room temperature (Table 6); for antibacterial activity as the relative inactivation (%) / Reduction [%]: undialyzed protein 100 μg/ml; for Reduction [%]: room temperature (Table 7)
# P. aeruginosa PAO1p = assay type: cell-based, Pseudomonas aeruginosa; conditions: 1.315 μM endolysin + 0.5 mM EDTA
# [2] = system: biofilm of the Staphylococcus aureus strain KS13; test: Biofilm reduction, crystal violet assay; conditions: 18 μg/well, 12 h; compared to the enzyme Lysostaphin
Molecule,antibacterial effect in words (reduction of cell numbers compared to the negative control) [1],antibacterial activity as the relative inactivation (%) [1] [%],Reduction [%] [1] [%],other results
B1,significant reduction,98.0±0.2,,
B2,,,,interaction of EDTA with the endolysin (P. aeruginosa PAO1p): synergistically
B3,,,99.9,
B4,significant reduction,99.85±0.09,,
B5,,,99,
B6,significant reduction,98.9 ± 0.4,,
B7,do not reduce cell numbers significantly,10 ± 13,,
B8,,,99,
B9,,,,"reduction of biofilm (crystal violet, absorption 590 nm) [2]: massive reduction"
B10,,,,interaction of EDTA with the endolysin (P. aeruginosa PAO1p): synergistically
B11,significant reduction,99.98±0.02,,
B12,,,99.9,
